Data reported in the NTF2 design screens of Basanta et al. (2020).

Test: protease stability score; higher = more stable; yeast display proteolysis, trypsin and chymotrypsin;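 further: relative to predicted unfolded state with 0 unfolded-like and 1 meaning tenfold more protease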

Sequence | protease stability score
DDEEKRIQEASREMLEIMRTGDEERLKQMADPNARWHTKIDGQEVHRHGREEFIKIFRWVMERLGIDHVELHSIHIYNGQNDIDSRFHFDGRNHRILFIWVVYNGRLHHVRIEIQ | 1.58
DDEEKRYRLFYKIALTMFETGDWQILHELADPHVKVRVGDKDLHGREELTHFWKELVERYPNMKIRLDDLSLQGEKIHIEGTWHFDGKELTTHIDLIMVDGKLKETRYEHK | 1.4
DDEEKSRDIAIEIFVHLLRTGDEHEMSKLADPHVKVNINGRELVGMEIFIEWIRRWSKEIRLHDVKVKDVRTQGDKIEVDGREDGIQGDKRKEVETSFFFRKYNGKWFIERMEFR | 1.96
DDEEKYFRMAVHHIIHLLHTGDETDSEHQADPDVRITVGDKRFHGREDFRDWVRELTDRYKNMTFRLKSVDVQGDFIILHGLLHFNGKNVEFDVFSWKFNGKWFMHHIIVR | 1.72
DDEERANRELLELLIHSYRTGDWKLWHELVDPHVRTSLHQGEFEMKSIGRHYVRDIMTYMGVDHVELRHLEIQGDKLIMHLELDVNGRRLHVILFLSKINGVWILREEEIRFI | 1.3
DDEERDLKRAYELWVHNMLTGNWRMLNYLADPNTKIEFENHKSHGRESLHELLKRLGVDHMHIELEDMHFVGDKIILHTREEHRVGDKEIRTEVHIDARKINGRWRLQSVHFR | 0.97
DDEERDVLRIMRIVLKLWKTGNEEKYEHLLDPDVRMEVDGRNLHGRETVSHWLHRLREEIRIDDYKIETVRAQGNKSILHVRTDGIINGQEVRLTEEITIIVINGRIQTFSIHRH | 0.628
DDEEREVHKATEDWFKLVKTGNEEVRHELLDPHTRLIIGDKEFHGREELLRWERELGYKFKTFIITDIKVQGNKAIIHGVDVGTINGVERHLDVRLLILKVNGKWITREIEVR | 1.62
DDEERHASTIFELLMEVILTGDEDTFEELADPNTRFDINGREFHGREYMSHLKTQYDHWYLKHMHITSSEVQGNFAILNSETDYELEYGDKRVSFYERWHLFVLKVDGRWIIHSFRIN | 0.985
DDEERIASFVIKMWLHSYLTGDENLLREFLDPNVKVRNEVNGRDWTHHGREALLWLLEFLGVKHVEHVRLHDLLVVNGRATSREIYHGKIGDKRTTFHFTLYIIRIDGVVKKFEIELE | 1.3
DDEERILHRIKELFEAAMHTGDWRLEFQQADPHTRVEIGDKEIHGMENIFDMLEDFWRELGIDQIDVEVRDEDSHIQGDKIILHVDITLRYNGVQERFKSTIILQKIDGRWHKKTEHRG | 1.16
DDEERIWRELLEDLLKALKTGDEHRIQDLLDPHVRLEIGDKEFHGREEVTEWFRRLMEKIKGAVFHIHIHDFRIQGDKLLADTRLIIHIGDKHEESETEMIVLKVNGRWLIDEIRVK | 2.59
DDEERIWRELLEIWIKLMETGDEDTTRKNADPHAKHILVIGDFTLVLHGWDLTVKFLKELSERMGINHIHVHRVEAINGQVHIDSRLRVGDKDVHTHIRIKIVDGVLKETNLHIK | 1.62
DDEERLIKHLAERWMKDLHTGNEDSLEEMADPNWRLRQIVNGQEVRDIGREKMIEVIREIEKKLGIDRIELHVHKVEIQGDKAHLNTEIRYNGQSSLHEIRLTIINGRLHSVTIHVK | 0.85
DDEERQAREFLKNYIRSLLTGDEDTLDELVDPNARWHVGDYHMIGRDSVSFLTKHLRIKHIEIKDIEIYGNKAIVLVHMHGIIDGKERDTDIIIFVEKINGQWKVREHRIS | 1.15
DDEERWTEEMYRIMIHIEKTGDEHTFSRLADPNVRLIVGDKHFHGRETFIEQLRKLIEHIRVEKIEIRHVELVGEKVILVMKRLSRIDGREVELEVHVEIVIVNGRYKMIRIEIR | 1.43
DDEHEHYRRQTKLVEDLFLTGDWDKIFRLLDPHVRMEINGRQHIGRERVTTEFKQHIEDLGIDHVEIKRSHVQGEKMHLDGVIEFNGRKQSSELIIVIIDGVWHSIVVQLH | 1.09
DDEHHDAVRVIEEFVTSVLTGNWEILKELLDPNVKFEIDGREIWGREFVNREIEEIRIRSRMEVRSVRFQGEKMEVDTEYNVDLNIGDKRFHYRRSTRVILEKYDGRWRIQSFHFE | 0.284

Sequence | protease stability score
DDEIRFLFKIAHLWMRSHSTGDERVLEHLMDPHVRIDFNGVELHGWKDMLTEWKEIRIIIEHVEIDHYDVQGDKMELNGRISGTFHFNGRTRTTDFRSELRFTVINGKLHSVEIHYR | 1.41
DDEKARQQVREFIRAMETGDEDSMVQQLDENAHVHIGDHVWRGREQARNAFKEFVKQFDRIEVKRVEYRNGDVVIDAVANVNGVRVRIIFKIHIHNGRIKNLRIEYRDEEEKKQLDG | 2.29
DDEKEEVERLARLFIHYVLTGDEDTLREMVDPNVRIRIGDKRNHGMKFLLHLITVWLERVDHVRIEVDESRLVNGQLNMTGTLHLHQGDKTQELRTRSHLVIVNGVMKEITFEYD | 2.06
DDEKEILRIAIEWSELVSNTGDEKTVEHLADPHVRIHYGDKDYVGRERMVEFVHRFKNLKLEIKDTDVQGEYIHVNGKMKFNGRTFDVEIVVFKIDGVWFEKSVEFK | 1.38
DDEKEITHTLSEIWIHTVRTGDEDTATNLVDPHARLDYNGREFHGRELISELMIRHLTEWRITHIHIDHVRVINGRFEIHSHQDGHFDGVRRKVEVHIDIIIIDGVVKEIRIRVH | 1.17
DDEKKHALEVVRKYFRAFLTGDEDESFELMDPRVKVDINGRDIHGWEEYRKWMEEIRIHDHRVKEEHFRVYDGRLIIIIRGELNGEINGRRFEFEFNIIIVVAKVDGQWRTESFKMEIH | 1.31
DDEKREMVEMLKIFIHNFLTGDWRTMEKLLDPDARFIINGQTFHGREWVRHSLHVFLHQFEHIHHIVIHDIDLQGDKVNIDGKLDGTVNGKRRLLDSHWHLRVVNGRVKEIEIHIH | 2.12
DDEKRFTHEAIKTSEEVMKTGDERLMRELMDPNVRSEIDGRDVHGMDIITEWLSHIRIEDIKLRRITVIDGVITIRGEVYFEQGDKIVTFDVTIIYEKIDGRWLLRSLHVK | 1.53
DDEKRWLEELWKDIQRADETGDEEHFLHLADPHVRFHVNGRDVHGMELVAHILLKWLNEIRIKDFRLKDMRMFENHLRVDGSIVLIVNGQEIETDMILRFEVVNGRIKDREIDIR | 1.37
DDELKTTHKFAKEFVDQLTTGDWEWHDKLFDPDARMSMIIDGREVRLHGREELTRWHLKVFEDLGIERVHSRYEHMHVVDGQIHFRGVLEFNGQRREFHIDMRIVDGRMHEFHEIHN | 0.329
DDENKFWKEFMDIWVRSLETGNEEELAKLIDPHARLHVNGVENHGREIVLKWFHHHLKHAGVDHRTFHDMRVFDGVNFIDGTLHVNGVTREIRLKVYVVNGVVESEEVRIH | 1.03
DDENKQMEEAIWIWKYMVETGDERINHEFADPHARVDINGKEHHGREEIERFLIEFSEKVKNLRVEIEDFRSINGRVDVILRLTVNGKRVETRVHAIKVDGKWLIKEVRFH | 0.624
DDEREEAKRAIEDLVRDLETGNWKHLHEFLDPNVRIRVGDKDIHGREEATHHLRRLHEKFKNLKVIIEHVDIVGNKIIEHGHIEIGDKSMEVEIIIIKINGRWYIKEIHIK | 1.6
DDERRDTKLAIDLWVETWHTGDEQMFEDLADPHTRIIIGDKEHVGREEAVRYSSELIRRLGANHVDVTFRETRMYNGRIDVKGEINLHIGDKDHHREVHVYSRKIDGRWVLERIEFR | 1.3
DDERRHTEKVLELWTRFLYTGDEHRMSELLDPNTQLRVGDKDLHGWHLFVHFISELIRKLGVDHLEVELKHADIINGRAELHVKFHFHTENHHTTINIIFFYEKIDGVWLIKSIEIK | 2.04
DDESEHSMKVFRFWAEARETGDEDTLTRLLDPHARLIQGDKHIIGREEWTRIIKERREQYGVKHIHFHIQDMRIFNGRVHLKVHYEIKFDGQSVTIDSEIIITKVDGRWYFESETKR | 1.11
DDESEKAEHIYELLTRLMLTGDEQIIHKLMDPNVRLDVDGQEYHGREEVVSAWRRWLKEMGVDHLELKSVRLIFFNGQLHIHINGEVRFNGRKHRVHIRLVLRKIDGVWHLEELEVEYK | 1.92
DDETDRSEKVAQMFVDLLTTGDWERLRHLMDPHVRMDINGQESHGRENVFRFFQKIRERLGLDRFHIEVTHIDVQGDKALWHGTLNINGQEHEVIIRIDVVDGRWHEVRMEVR | 2.62
